# Reference: PMC11463350
# T1: zPol θ (zebrafish DNA polymerase theta, polymerase domain) (Danio rerio (zebrafish), UniProt F1Q4P4 1798-2576)
# T1 sequence: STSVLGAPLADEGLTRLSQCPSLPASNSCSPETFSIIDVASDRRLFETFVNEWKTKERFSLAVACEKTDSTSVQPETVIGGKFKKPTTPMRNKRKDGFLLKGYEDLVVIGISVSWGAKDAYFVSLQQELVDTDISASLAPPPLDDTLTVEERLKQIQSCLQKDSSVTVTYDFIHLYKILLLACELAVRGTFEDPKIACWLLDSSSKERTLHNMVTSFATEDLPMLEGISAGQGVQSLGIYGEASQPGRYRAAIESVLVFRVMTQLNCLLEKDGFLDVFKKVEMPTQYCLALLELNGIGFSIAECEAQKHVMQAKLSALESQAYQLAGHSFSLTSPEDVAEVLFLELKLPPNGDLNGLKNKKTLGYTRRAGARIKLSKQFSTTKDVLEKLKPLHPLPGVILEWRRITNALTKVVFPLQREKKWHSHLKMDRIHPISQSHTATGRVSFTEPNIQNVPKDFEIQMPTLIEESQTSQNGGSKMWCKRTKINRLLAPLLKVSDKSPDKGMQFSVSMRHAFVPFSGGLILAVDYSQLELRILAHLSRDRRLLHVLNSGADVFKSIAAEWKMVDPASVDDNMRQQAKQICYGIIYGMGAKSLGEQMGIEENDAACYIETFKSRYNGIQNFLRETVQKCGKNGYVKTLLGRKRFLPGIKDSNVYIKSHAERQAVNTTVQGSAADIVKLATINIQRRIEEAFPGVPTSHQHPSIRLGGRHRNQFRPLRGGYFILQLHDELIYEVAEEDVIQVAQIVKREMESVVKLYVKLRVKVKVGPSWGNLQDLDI
# B1: 25/40 undamaged DNA substrate (dsDNA)
# DNA 1: TTTGCCTTGACCATGTAACAGAGAG
# DNA 2: TCTCTTCTCTCACTCACGCTCTCTGTTACATGGTCAAGGC
# Target: T1, zPol θ (zebrafish DNA polymerase theta, …)
# Assay: EMSA
binder,measurement,value
B1,Kd,~19.8 nM
